The target of this test is Gβγ (βγ subunit of the heterotrimeric G protein) (rabbit). Nature of the test: cell-based or functional assay.

Turning to “βARKCT (βARK-1-(495-689) polypeptide; Met-Gly495-Leu689 of bovine β-adrenergic receptor kinase-1) (from UniProt P21146 495-689)”, the EGF activation of MAP kinase in cultured vascular smooth muscle cells (versus empty virus treated cells) is -7%, the LPA activation of MAP kinase in cultured vascular smooth muscle cells (versus empty virus treated cells) is -58%, the basal MAP kinase activity in cultured vascular smooth muscle cells (versus empty virus treated cells) is 18% and the serum activation of MAP kinase in cultured vascular smooth muscle cells (versus empty virus treated cells) was -38%.

(Values after patent publication US6683057.)
